Laboratory results from paper PMC11180174 (2024).

B1: LY-CoV1404 (antibody, V domains shown)
VH: QITLKESGPTLVKPTQTLTLTCTFSGFSLSISGVGVGWLRQPPGKALEWLALIYWDDDKRYSPSLKSRLTISKDTSKNQVVLKMTNIDPVDTATYYCAHHSISTIFDHWGQGTLVTVSS
VL: QSALTQPASVSGSPGQSITISCTATSSDVGDYNYVSWYQQHPGKAPKLMIFEVSDRPSGISNRFSGSKSGNTASLTISGLQAEDEADYYCSSYTTSSAVFGGGTKLTVL
B2: 7F3 (antibody, V domains shown)
VH: EVQLVESGGGLVKPGRSLRLSCTASGFTFGDYAMSWFRQAPGKGLEWVGFIRSKAYGGTTEYAASVKGRFTISRDDSKSIAYLQMNSLKTEDTAVYYCTRDRYARYDILTGLSPAGADYFYYAMDVWGQGTTVTVSS
VL: EIVLTQSPATLSLSPGERATLSCRASQSVSSYLAWYQQKPGQAPRLLIYDASNRATGIPARFSGSGSGTDFTLTISSLEPEDFAVYYCQQRSNWPQYTFGQGTKLEIK

Target: SARS-CoV-2 (Wuhan-Hu-1 strain) wild-type spike RBD with C-terminal 8xHis (SARS-CoV-2, UniProt P0DTC2 319-541)
Test: BLI

Row | Binder | Kd [nM]
1 | B1 | < 0.01
2 | B2 | < 0.01
